Values joined by “and” are separate entries in the source; they are usually repeats but may differ in a detail not shown here. Equal entries are not always repeated. Each block holds one substance with its values, some of them ahead of it.
Columns and labels:
[1] = target: Neutravidin (deglycosylated avidin) (UniProt P02701); assay: single-analyte, Neutravidin bead 40/60 without peptide, flow cytometry
[2] = target: Neutravidin (deglycosylated avidin) (UniProt P02701); assay: single-analyte, Neutravidin bead 40/40 without peptide, flow cytometry
[3] = target: Peptide 4 …-biotin; assay: multiplex peptide beads, flow cytometry; antibody pre-mixed with soluble HYGSLPQK 10 ug/mL (competitor m18)
[4] = target: Peptide 2 …-biotin; assay: as above
[5] = target: Peptide 6 …-biotin; assay: as above
[6] = target: Peptide 8 …-biotin; assay: as above
[7] = target: Peptide 1 …-biotin; assay: as above
[8] = target: Neutravidin (deglycosylated avidin) (UniProt P02701); assay: multiplex, Neutravidin bead 40/60 without peptide, flow cytometry
[9] = target: Neutravidin (deglycosylated avidin) (UniProt P02701); assay: multiplex, Neutravidin bead 70/60 without peptide, flow cytometry
[10] = target: Neutravidin (deglycosylated avidin) (UniProt P02701); assay: multiplex, Neutravidin bead 70/40 without peptide, flow cytometry
[11] = target: Neutravidin (deglycosylated avidin) (UniProt P02701); assay: multiplex, Neutravidin bead 40/50 without peptide, flow cytometry
[12] = target: Neutravidin (deglycosylated avidin) (UniProt P02701); assay: single-analyte, Neutravidin bead 70/60 without peptide, flow cytometry
[13] = target: Alpha fetoprotein (UniProt P02771); assay: multiplex sandwich, S10473 capture beads; AFP 250 ng/mL, washed
Sequence of UniProt P02771 (P02771 19-609 limits assumed): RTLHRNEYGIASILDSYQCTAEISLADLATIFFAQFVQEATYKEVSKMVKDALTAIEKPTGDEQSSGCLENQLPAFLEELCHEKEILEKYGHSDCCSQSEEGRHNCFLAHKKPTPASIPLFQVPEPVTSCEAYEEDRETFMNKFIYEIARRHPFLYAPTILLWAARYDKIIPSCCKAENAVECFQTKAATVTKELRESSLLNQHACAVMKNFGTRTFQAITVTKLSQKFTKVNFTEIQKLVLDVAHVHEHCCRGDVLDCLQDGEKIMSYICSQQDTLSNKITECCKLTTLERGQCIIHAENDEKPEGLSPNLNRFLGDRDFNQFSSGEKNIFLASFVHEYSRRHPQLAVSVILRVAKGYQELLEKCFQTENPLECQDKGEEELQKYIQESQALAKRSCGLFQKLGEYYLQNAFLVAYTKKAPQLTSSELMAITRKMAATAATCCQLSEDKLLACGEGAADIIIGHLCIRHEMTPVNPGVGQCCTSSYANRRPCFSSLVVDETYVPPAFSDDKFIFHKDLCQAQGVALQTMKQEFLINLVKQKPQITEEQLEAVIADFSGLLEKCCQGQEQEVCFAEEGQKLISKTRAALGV

[14] = target: Alpha fetoprotein (UniProt P02771); assay: multiplex sandwich, S10473 capture beads; AFP 0.25 ng/mL, washed
[15] = target: Alpha fetoprotein (UniProt P02771); assay: multiplex sandwich, S10473 capture beads; AFP 16 ng/mL, washed
[16] = target: Alpha fetoprotein (UniProt P02771); assay: anti-AFP capture beads, flow cytometry; AFP 1000.0 ng/mL, anti-AFP probe
[17] = target: Alpha fetoprotein (UniProt P02771); assay: multiplex no-wash sandwich, S10473 beads; serum Level 1, AFP 10.7 U/mL
[18] = target: Alpha fetoprotein (UniProt P02771); assay: multiplex sandwich, S10473 capture beads; AFP 2 ng/mL, no wash
[19] = target: Alpha fetoprotein (UniProt P02771); assay: multiplex sandwich, S10473 capture beads; AFP 4 ng/mL, no wash
[20] = target: Alpha fetoprotein (UniProt P02771); assay: multiplex sandwich, S10473 capture beads; AFP 8 ng/mL, no wash
[21] = target: Alpha fetoprotein (UniProt P02771); assay: anti-AFP capture beads, flow cytometry; AFP 0.0 ng/mL, anti-AFP probe
[22] = target: Human chorionic gonadotropin (human) (UniProt P01215); assay: MAB602 capture beads, flow cytometry; hCG 100.0 ng/mL, anti-AFP probe
Sequence of UniProt P01215 (P01215 25-116, chain 1 of 2, other chains not shown): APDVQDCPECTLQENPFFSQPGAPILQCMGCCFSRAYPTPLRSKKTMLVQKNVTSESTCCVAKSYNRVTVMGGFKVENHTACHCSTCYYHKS

[23] = target: Alpha fetoprotein (UniProt P02771); assay: multiplex sandwich, S10473 capture beads; AFP 2 ng/mL, washed
[24] = target: Human chorionic gonadotropin (human) (UniProt P01215); assay: multiplex sandwich, MAB602 capture beads; hCG 1 ng/mL, washed
[25] = target: Alpha fetoprotein (UniProt P02771); assay: MAB602 capture beads, flow cytometry; AFP 100.0 ng/mL, anti-hCG probe
[26] = target: Human chorionic gonadotropin (human) (UniProt P01215); assay: multiplex sandwich, MAB602 capture beads; hCG 0.5 ng/mL, no wash
[27] = target: Human chorionic gonadotropin (human) (UniProt P01215); assay: multiplex no-wash sandwich, MAB602 beads; Unknown serum, hCG computed 218.55 mU/mL
[28] = target: Human chorionic gonadotropin (human) (UniProt P01215); assay: sandwich, MAB602 capture beads, flow cytometry; hCG 2000 ng/mL
[29] = target: Human chorionic gonadotropin (human) (UniProt P01215); assay: bead sandwich, flow cytometry; capture A1 beads, hCG 20.0 ug/mL
[30] = target: Human chorionic gonadotropin (human) (UniProt P01215); assay: MAB602 capture beads, flow cytometry; hCG 1000.0 ng/mL, anti-hCG probe
[31] = target: Human chorionic gonadotropin (human) (UniProt P01215); assay: MAB602 capture beads, flow cytometry; hCG 1.0 ng/mL, anti-hCG probe
[32] = target: Human chorionic gonadotropin (human) (UniProt P01215); assay: sandwich, MAB602 capture beads, flow cytometry; hCG 0.0002 ng/mL
[33] = target: Human chorionic gonadotropin (human) (UniProt P01215); assay: multiplex sandwich, MAB602 capture beads; hCG 0 ng/mL, washed
[34] = target: Human chorionic gonadotropin (human) (UniProt P01215); assay: multiplex sandwich, MAB602 capture beads; hCG 0 ng/mL, no wash
[35] = target: Human chorionic gonadotropin (human) (UniProt P01215); assay: multiplex sandwich, MAB602 capture beads; hCG 125 ng/mL, no wash
[36] = target: Human chorionic gonadotropin (human) (UniProt P01215); assay: multiplex sandwich, MAB602 capture beads; hCG 2 ng/mL, no wash
[37] = target: Human chorionic gonadotropin (human) (UniProt P01215); assay: multiplex sandwich, MAB602 capture beads; hCG 8 ng/mL, washed
[38] = target: Alpha fetoprotein (UniProt P02771); assay: MAB602 capture beads, flow cytometry; AFP 0.0 ng/mL, anti-hCG probe
[39] = target: Human chorionic gonadotropin (human) (UniProt P01215); assay: multiplex sandwich, MAB602 capture beads; hCG 62 ng/mL, no wash
[40] = target: Human chorionic gonadotropin (human) (UniProt P01215); assay: multiplex sandwich, MAB602 capture beads; hCG 62 ng/mL, washed

Sequence of UniProt P02701 (P02701 25-152 limits assumed): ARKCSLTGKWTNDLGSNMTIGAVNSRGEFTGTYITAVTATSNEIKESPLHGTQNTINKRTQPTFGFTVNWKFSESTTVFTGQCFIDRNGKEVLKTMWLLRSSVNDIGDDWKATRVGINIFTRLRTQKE

MIF of Fm [1]: 54 | MIF of Fm [2]: 44 | MIF of Fm [3]: 13 | MIF of Fm [4]: 7 | MIF of Fm [5]: 15 | MIF of Fm [6]: 9 | MIF of Fm [7]: 4 | MIF of Fm [8]: 26 | MIF of Fm [9]: 23 | MIF of Fm [10]: 21 | MIF of Fm [11]: 27 | MIF of Fm [12]: 70
Substance: MAB 384, Bodipy FL-X labeled (antibody)

MIF of Fm [13]: 1200 | MIF of Fm [14]: 24 | MIF of Fm [15]: 347 | MIF of Fm [16]: 348 | MIF AVG [17]: 78 | MIF of FL1 [17]: 74 and 83 and 77 | MIF of Fm [18]: 51 | MIF of Fm [19]: 94 | MIF of Fm [20]: 190 | MIF of Fm [21]: 45 | MIF of Fm [22]: 48 | MIF of Fm [23]: 59
Substance: M20077 affinity purified polyclonal anti-AFP antibody, Bodipy FL-CASE labeled

MIF of Fm [24]: 359 | MIF of Fm [25]: 47 | MIF of Fm [26]: 166 | MIF AVG [27]: 272 | MIF of FL1 [27]: 270 and 264 and 283 | MIF of Fm [28]: 9290 and 9390 | MIF of Fm [29]: 8790 | MIF of Fm [30]: 792 | MIF of Fm [31]: 104 | MIF of Fm [32]: 122 and 149 | MIF of Fm [33]: 18 | MIF of Fm [34]: 15 | MIF of Fm [35]: 2070 | MIF of Fm [36]: 650 | MIF of Fm [37]: 1960 | MIF of Fm [38]: 71 | MIF of Fm [39]: 2420 | MIF of Fm [40]: 3200
Substance: AB633 affinity purified polyclonal anti-hCG antibody, Bodipy FL-CASE labeled

From patent US20040059519A1
